Substrate: CCn1c(=NN=c2sc3cc(S(=O)(=O)O)ccc3n2CC)sc2cc(S(=O)(=O)O)ccc21
Test: purified protein
Format: biochemical, Pleurotus sapidus
Conditions: 100 µM H2O2, 25 mM MnSO4, optimal pH and temperature (pH 3.5, 40 °C)

B1: PsaPOX (DyP-type peroxidase of Pleurotus sapidus) (Pleurotus sapidus) (protein)
chain: MTTPAPPLDLNNIQGDILGGLPKKTETYFFFDVTNVDRFKANMTQFIPHVKTSAGIVKDREAIKEHKRQKRPGLVPMAAVNVSFSHLGLQKLGITDDLSDSSFTTGQRKDAEVLGDPGTKNGDTFTPAWEAPFLKDIHGVIFVAGDCHASVHKKLDEIKHIFGVGTSHASISEVTHVRGDVRPGQVSAHEHFGFLDGISNPAVDQFDQNPFPGQDSIRPGFILAKENGDSRAAARPDWAKDGSFLTFRYLFQMVPEFDDFLESNPIVLPGLSRKEGSELLGARIVGRWKSGAPIEITPLKDDPKLGADAQRNNNFDFGDSLVRGDQTKCPFAAHIRKTYPRNDLEGPPLNADIDNRRIIRRGIQFGPEVTSQEHHDKKTHHGRGLLFVCYSSSIDDGFHFIQQSWANAPNFPVNAVTSAGPIPPLDGVIPGFDAIIGQKVGGGIRQISGTNPNDPTTNITLPDQDFVIPRGGEYFFSPSISALKTKFAAGVASSAPQAQAPIST
notes: full-length ORF (1512 bp, 504 aa), C-terminal 6x His tag kept, S. cerevisiae alpha-factor secretion signal (pPIC9), Komagataella pfaffii GS115, Ni-NTA; monomeric
Protein B1 has a Km of 37 ± 4 µM and a kcat/Km of 184000 ± 5000 M⁻¹ s⁻¹.

Source: publication PMC7181223, “A DyP-Type Peroxidase of Pleurotus sapidus with Alkene Cleaving Activity” (Molecules, 2020)
